Test results from publication PMC10143413, “Proteomic Profiling of Mouse Brain Pyruvate Kinase Binding Proteins: A Hint for Moonlighting Functions of PKM1?” (International Journal of Molecular Sciences, 2023).

Molecular target: T1, Pyruvate kinase PKM1, purified from rabbit skeletal muscle (rabbit, UniProt P11974-1 1-531)
T1 construct: Pyruvate kinase PKM, isoform M1, rabbit skeletal muscle; called full-length PKM1; amine-coupled to a CM5 chip or used as analyte in SPR; also called full-length PKM1; PK1; source: isolated from skeletal muscles of adult rabbits, electrophoretically homogeneous
Test: SPR; Biacore T200, 25 °C; GAPDH, LDH or aldolase A amine-coupled to a CM5 chip, PKM1 as analyte in 0.05 M potassium phosphate buffer pH 7.4, 10 µL/min for 5 min; global fit to the 1:1 binding model
Conditions: both partners purified

T1 sequence (P11974 whole entry, canonical isoform): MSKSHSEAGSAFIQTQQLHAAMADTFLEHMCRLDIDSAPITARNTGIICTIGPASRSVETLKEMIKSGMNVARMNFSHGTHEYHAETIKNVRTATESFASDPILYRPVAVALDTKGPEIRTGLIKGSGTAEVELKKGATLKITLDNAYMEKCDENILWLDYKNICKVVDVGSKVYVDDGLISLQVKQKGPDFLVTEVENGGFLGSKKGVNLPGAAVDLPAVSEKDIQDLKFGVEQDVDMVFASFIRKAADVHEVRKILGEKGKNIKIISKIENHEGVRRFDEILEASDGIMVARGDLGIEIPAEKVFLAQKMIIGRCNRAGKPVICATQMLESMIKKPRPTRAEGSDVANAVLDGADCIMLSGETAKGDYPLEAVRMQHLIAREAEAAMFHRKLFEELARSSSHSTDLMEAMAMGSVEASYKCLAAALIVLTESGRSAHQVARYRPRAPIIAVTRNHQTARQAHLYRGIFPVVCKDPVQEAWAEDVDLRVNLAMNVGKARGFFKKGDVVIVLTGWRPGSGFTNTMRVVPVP

B1: Glyceraldehyde 3-phosphate dehydrogenase, purified from rabbit skeletal muscle (enzyme)
chain: not shown
notes: Glyceraldehyde-3-phosphate dehydrogenase, rabbit skeletal muscle; also called GAPDH; GAPD; source: isolated from skeletal muscles of adult rabbits, electrophoretically homogeneous
Kd: 1.06 µM | koff: 0.00162 s⁻¹ | kon: 1530 M⁻¹ s⁻¹
